Assay [1] deals with T1, human Claudin18.1 (CLDN18.1), full length, on cells (human, UniProt P56856 1-261).
T1 construct: HEK293-CLDN18.1 cells carry a fusion with green fluorescent protein (ZsGreen); CHO-K1-CLDN18.1 cells carry pcDNA3.1-CLDN18.1; The cell line is named under assay; also called CLDN18.1-FL; HEK293-CLDN18.1 cells
Briefly: cellular ELISA. In general terms: An ELISA detects its analyte on a solid surface through an enzyme-linked reagent.

The target in assay [2] is T2, human Claudin18.2 (CLDN18.2), full length, on cells (human).
T2 construct: also called CLDN18.2-FL; HEK293-CLDN18.2 cells
The assay can be described thus: cellular ELISA.

Assay [3] deals with T1, human Claudin18.1 (CLDN18.1), full …. Briefly: FACS on CHO-K1-CLDN18.1 cells. From the text: (§1) Human gastric cancer cells NUGC4 and stably transfected cells CHO-K1-CLDN18.1 (prepared in Example 5) were used respectively, to verify the specificity and affinity of the anti-CLDN18.2 antibodies above at the cellular level by FAGS technology. After antibody affinity maturation and screening in vitro, each antibody can bind to the CLDN18.2 target on NUGC4 cells, but not to CHO-K1-CLDN18.1 cells, as compared with the original 3CHI antibody.

Assay [4] addresses T2, human Claudin18.2 (CLDN18.2), full …. The assay can be described thus: FACS on NUGC4 cells.
From the text: as §1

B1: 307CHI (antibody, V domains shown)
VH: EVKLVESGGGLVQPGGSLKLSCAASGFGFSDYGMAWVRQAPRKGPEWVAFISNSAYSIYYADTVTGRFTISRENAKNTLYLEMSSLRSEDTAMYYCARLGYGNSFAYWGQGTLVTVSA
VL: DIVMTQSPSSLTVTAGEKVTMSCKSSQSLLNSGNQKNYLTWYQQKPGQPPKLLIYWASTRESGVPDRFTGSGSGTDFTLTISSVQAEDLAVYYCQNNYYYPLTFGAGTKLELK
notes: chimeric with the constant region of human IgG1
For B1, the binding result is “no binding” in assay [1] and “binds” in assay [2].

B2: 322CHI (antibody, human IgG1, V domains shown)
VH: EVKLVESGGGLVQPGGSLKLSCAASGFTFSDYGMAWVRQAPRKGPEWVAFISNLAYSIYYADTVTGRFTISRENAKNTLYLEMSSLRSEDTAMYYCARLGYGNSFAYWGQGTLVTVSA
VL: DIVMTQSPSSLTVTAGEKVTMSCKSSQSLLNSGNQKNYLTWYQQKPGQPPKLLIYWGSTRESGVPDRFTGSGSGTDFTLTISSVQAEDLAVYYCQNNYYYPLTFGAGTKLELK
notes: as for B1
Regarding B2, the binding result in assay [1] is reported as “no binding”. Moreover, the “MFI (CLDN18.1)” value in assay [3] is 57 MFI. In addition, the “MFI (CLDN18.2)” value in assay [4] amounted to 44800 MFI.

B3: 303CHI (antibody, V domains shown)
VH: EVKLVESGGGLVQPGGSLKLSCAASGFTFSRYGMAWVRQAPGKGPEWVAFISNSAYSIYYADTVTGRFTISRENAKNTLYLEMSSLRSEDTAMYYCARLGYGNSFAYWGQGTLVTVSA
VL: DIVMTQSPSSLTVTAGEKVTMSCKSSQSLLNSGNQKNYLTWYQQKPGQPPKLLIYWGSTRESGVPDRFTGSGSGTDFTLTISSVQAEDLAVYYCQNDYSYPLTFGAGTKLELK
notes: as for B1
On to B3, for which, in assay [1], the binding result is listed as “no binding”. In assay [3], the “MFI (CLDN18.1)” value amounted to 85 MFI. Moreover, the “MFI (CLDN18.2)” value in assay [4] was determined as 38200 MFI.

B4: 301CHI (antibody, V domains shown)
VH: EVKLVESGGGLVQPGGSLKLSCAASGFTFSDYGMAWVRQAPRKGPEWVAFISNLAYSIYYADTVTGRFTISRENAKNTLYLEMSSLRSEDTAMYYCARLGYGNSFAYWGQGTLVTVSA
VL: DIVMTQSPSSLTVTAGEKVTMSCKSSQSLLNSGNQKNYLTWYQQKPGQPPKLLIYWASTRESGVPDRFTGSGSGTDFTLTISSVQAEDLAVYYCQNNYYYPLTFGAGTKLELK
notes: as for B1
Consider B4, for which the binding result in assay [1] is “no binding”. In addition, in assay [3], the “MFI (CLDN18.1)” value came out at 114 MFI. The “MFI (CLDN18.2)” value in assay [4] amounted to 44400 MFI.

B5: 324CHI (antibody, human IgG1, V domains shown)
VH: EVKLVESGGGLVQPGGSLKLSCAASGFTFSDYGMAWVRQAPRKGPEWVAFISNLAYSIYYADTVTGRFTISRENAKNTLYLEMSSLRSEDTAMYYCARLGYGNSFAYWGQGTLVTVSA
VL: DIVMTQSPSSLTVTAGEKVTMSCKSSQSLLNSGNQKNYLTWYQQKPGQPPKLLIYWGSTRESGVPDRFTGSGSGTDFTLTISSVQAEDLAVYYCQNELFYPLTFGAGTKLELK
notes: as for B1
Regarding B5, the binding result in assay [1] is recorded as “no binding”. For the same molecule, the “MFI (CLDN18.1)” value in assay [3] was determined as 248 MFI. In addition, in assay [4], the “MFI (CLDN18.2)” value was 36000 MFI.

B6: 302CHI (antibody, V domains shown)
VH: EVKLVESGGGLVQPGGSLKLSCAASGFTFSDYGMAWVRQAPRKGPEWVAFISNLAYSIYYADTVTGRFTISRENAKNTLYLEMSSLRSEDTAMYYCARLGYGNSFAYWGQGTLVTVSA
VL: DIVMTQSPSSLTVTAGEKVTMSCKSSQSLLNSGNQKNYLTWYQQKPGQPPKLLIYWASTRESGVPDRFTGSGSGTDFTLTISSVQAEDLAVYYCQNDYSLPFTFGAGTKLELK
notes: as for B1
For B6, the results for the binding result in assay [1] and in assay [2] were “no binding” and “binds”, respectively.

B7: 319CHI (antibody, V domains shown)
VH: EVKLVESGGGLVQPGGSLKLSCAASGFGFSDYGMAWVRQAPRKGPEWVAFISNSAYSIYYADTVTGRFTISRENAKNTLYLEMSSLRSEDTAMYYCARLGRGNSFAYWGQGTLVTVSA
VL: DIVMTQSPSSLTVTAGEKVTMSCKSSQSLLNSGNQKNYLTWYQQKPGQPPKLLIYWASTRESGVPDRFTGSGSGTDFTLTISSVQAEDLAVYYCQNNYYYPLTFGAGTKLELK
notes: as for B1
On to B7, for which the binding result is reported as “no binding” in assay [1] and “binds” in assay [2].

B8: 321CHI (antibody, human IgG1, V domains shown)
VH: EVKLVESGGGLVQPGGSLKLSCAASGFGFSDYGMAWVRQAPRKGPEWVAFISNSAYSIYYADTVTGRFTISRENAKNTLYLEMSSLRSEDTAMYYCARLGRGNSFAYWGQGTLVTVSA
VL: DIVMTQSPSSLTVTAGEKVTMSCKSSQSLLNSGNQKNYLTWYQQKPGQPPKLLIYWASTRESGVPDRFTGSGSGTDFTLTISSVQAEDLAVYYCQNELFYPLTFGAGTKLELK
notes: as for B1
As for B8, the binding result in assay [1] was “no binding”. Further, the “MFI (CLDN18.1)” value in assay [3] was determined as 299 MFI. In addition, in assay [4], the “MFI (CLDN18.2)” value is 46300 MFI.

B9: 304CHI (antibody, V domains shown)
VH: EVKLVESGGGLVQPGGSLKLSCAASGFGFSDYGMAWVRQAPRKGPEWVAFISNSAYSIYYADTVTGRFTISRENAKNTLYLEMSSLRSEDTAMYYCARLGYGNSFAYWGQGTLVTVSA
VL: DIVMTQSPSSLTVTAGEKVTMSCKSSQSLLNSGNQKNYLTWYQQKPGQPPKLLIYWASTREPGVPDRFTGSGSGTDFTLTISSVQAEDLAVYYCQNDYSYPLTFGAGTKLELK
notes: as for B1
Consider B9, for which the binding result in assay [1] is recorded as “no binding”; in assay [2], “binds”.

B10: 308CHI (antibody, V domains shown)
VH: EVKLVESGGGLVQPGGSLKLSCAASGFGFSDYGMAWVRQAPRKGPEWVAFISNSAYSIYYADTVTGRFTISRENAKNTLYLEMSSLRSEDTAMYYCARLGYGNSFAYWGQGTLVTVSA
VL: DIVMTQSPSSLTVTAGEKVTMSCKSSQSLLNSGNQKNYLTWYQQKPGQPPKLLIYWASTRESGVPDRFTGSGSGTDFTLTISSVQAEDLAVYYCQNDYSLPFTFGAGTKLELK
notes: as for B1
For B10, the binding result is “no binding” in assay [1] and “binds” in assay [2].

B11: 306CHI (antibody, V domains shown)
VH: EVKLVESGGGLVQPGGSLKLSCAASGFTFSDYGMAWVRQAPRKGPEWVAFISNLAYSIYYADTVTGRFTISRENAKNTLYLEMSSLRSEDTAMYYCARLGRGNSFAYWGQGTLVTVSA
VL: DIVMTQSPSSLTVTAGEKVTMSCKSSQSLLNSGNQKNYLTWYQQKPGQPPKLLIYWASTRESGVPDRFTGSGSGTDFTLTISSVQAEDLAVYYCQNDYSFPLTFGAGTKLELK
notes: as for B1
For the molecule B11, the binding result in assay [1] is on record as “no binding”; in assay [2] it was “binds”.

B12: 309CHI (antibody, human IgG1, V domains shown)
VH: EVKLVESGGGLVQPGGSLKLSCAASGFGFSDYGMAWVRQAPRKGPEWVAFISNSAYSIYYADTVTGRFTISRENAKNTLYLEMSSLRSEDTAMYYCARLGYGNSFAYWGQGTLVTVSA
VL: DIVMTQSPSSLTVTAGEKVTMSCKSSQSLLNSGNQKNYLTWYQQKPGQPPKLLIYWASTRESGVPDRFTGSGSGTDFTLTISSVQAEDLAVYYCQNELFYPLTFGAGTKLELK
notes: as for B1
For B12, the binding result in assay [1] was “no binding”. Moreover, in assay [3], the “MFI (CLDN18.1)” value was 78 MFI. Also, the “MFI (CLDN18.2)” value in assay [4] was 42500 MFI.

B13: 313CHI (antibody, V domains shown)
VH: EVKLVESGGGLVQPGGSLKLSCAASGFTFSDYGMAWVRQAPRKGPEWVAFISNLAYSIYYADTVTGRFTISRENAKNTLYLEMSSLRSEDTAMYYCARLGRGNSFAYWGQGTLVTVSA
VL: DIVMTQSPSSLTVTAGEKVTMSCKSSQSLLNSGNQKNYLTWYQQKPGQPPKLLIYWASTRESGVPDRFTGSGSGTDFTLTISSVQAEDLAVYYCQNNYYYPLTFGAGTKLELK
notes: as for B1
Regarding B13, the binding result in assay [1] is listed as “no binding”; in assay [2], “binds”.

B14: 315CHI (antibody, human IgG1, V domains shown)
VH: EVKLVESGGGLVQPGGSLKLSCAASGFTFSDYGMAWVRQAPRKGPEWVAFISNLAYSIYYADTVTGRFTISRENAKNTLYLEMSSLRSEDTAMYYCARLGRGNSFAYWGQGTLVTVSA
VL: DIVMTQSPSSLTVTAGEKVTMSCKSSQSLLNSGNQKNYLTWYQQKPGQPPKLLIYWASTRESGVPDRFTGSGSGTDFTLTISSVQAEDLAVYYCQNELFYPLTFGAGTKLELK
notes: as for B1
In the case of B14, in assay [1], the binding result is reported as “no binding”. In addition, in assay [3], the “MFI (CLDN18.1)” value was found to be 65 MFI. Further, the “MFI (CLDN18.2)” value in assay [4] was determined as 42300 MFI.

B15: 312CHI (antibody, human IgG1, V domains shown)
VH: EVKLVESGGGLVQPGGSLKLSCAASGFTFSRYGMAWVRQAPGKGPEWVAFISNSAYSIYYADTVTGRFTISRENAKNTLYLEMSSLRSEDTAMYYCARLGYGNSFAYWGQGTLVTVSA
VL: DIVMTQSPSSLTVTAGEKVTMSCKSSQSLLNSGNQKNYLTWYQQKPGQPPKLLIYWASTRESGVPDRFTGSGSGTDFTLTISSVQAEDLAVYYCQNELFYPLTFGAGTKLELK
notes: as for B1
In the case of B15, the values for the binding result in assay [1] and in assay [2] were “no binding” and “binds”, respectively.

B16: 328CHI (antibody, human IgG1, V domains shown)
VH: EVKLVESGGGLVQPGGSLKLSCAASGFGFSDYGMAWVRQAPRKGPEWVAFISNSAYSIYYADTVTGRFTISRENAKNTLYLEMSSLRSEDTAMYYCARLGRGNSFAYWGQGTLVTVSA
VL: DIVMTQSPSSLTVTAGEKVTMSCKSSQSLLNSGNQKNYLTWYQQKPGQPPKLLIYWGSTRESGVPDRFTGSGSGTDFTLTISSVQAEDLAVYYCQNNYYYPLTFGAGTKLELK
notes: as for B1
As for B16, the values for the binding result in assay [1] and in assay [2] were “no binding” and “binds”, respectively.

The values above are taken from patent publication US20220119517A1 (NANJING SANHOME PHARMACEUTICAL, published 2022).
